Laboratory results reported in USRE41461E1, “Purification, composition and specificity of Heparinase I, II, and III from Flavobacterium heparinum” (Massachusetts Institute of Technology, priority 1992, dated 2010).

Tests used:
[1] = Temperature stability of lyase activity; type: physicochemical; conditions: 30° C., protein 650 ng/ml
Procedure: Lyase assay stock solutions were prepared in the appropriate buffer and placed in water baths at the following temperatures: heparin lyase I at 30° C., heparin lyase II at 35° C., and heparin lyase III at both 35° and 40° C. […]

[2] = Heparin lyase activity assay (change of absorbance at 232 nm), heparan sulfate as substrate; type: biochemical; conditions: final level of depolymerization, 24 h
Procedure: (§1) The spectrophotometer was adjusted to the optimum temperature of the particular lyase being assayed. […] A measured quantity of lyase was added, bringing the final volume to 400 μl and the cuvette was gently mixed. The microcuvette was then immediately returned to the spectrophotometer and the change of absorbance at 232 nm was measured at 10 seconds intervals over 3 min. […] The specific activity was then calculated by dividing the micromoles of product produced per minute by the milligrams of protein in the cuvette. […] G., and Linhardt, R. J. (1989) Carbohydr. Res. 190, 219-233. Protein concentration was measured by the Bradford assay, Bradford, M. M. (1976) Anal. Biochem. 72, 248-254, based on a bovine serum albumin standard curve. […] The activities of each lyase (I acting on heparin, II acting on both heparin and heparan sulfate, and III acting on heparan sulfate) were then determined at different pH values. The buffer giving optimum activity for each heparin lyase was selected by testing buffers with buffering capacity near the pH optima calculated in the previous experiments. These buffers were: Tris-HCl, sodium phosphate, HEPES, MOPS, TES, and BTP-CHl. […] The heparin lyase assay solutions were made by diluting enzyme in 50 mM sodium phosphate buffer adjusted to the appropriate pH as previously described. Heparin lyase activity was determined in each buffer. Activity was assayed both immediately after addition to each buffer and following incubation for 24 h at 37° C. The salt concentration for optimum activity was investigated. Sodium chloride, potassium chloride, and sodium and potassium acetate were used to differentiate between ionic strength and specific ion affects. […] The temperature was adjusted in a temperature-regulated spectrophotometer and equilibrated for 10 min before the assay was started. Michaelis-Menten constants were determined using the optimized conditions. The final absorbance value for total depolymerization was divided by 20 to find a value that represented 5% reaction completion. The purified lyase preparations were diluted so that 5% of total depolymerization would be reached only at the end of a 3-min assay. The reaction velocities at specific molar concentrations for each lyase and their substrates were used for kinetic analysis using EZ-FIT hyperbolic curve-fitting program of […]. (1988) Anal. Biochem. 174, 437-447). Substrate solutions were prepared from 50 mg/ml heparin and 40 mg/ml for heparan sulfate stock solutions. […] The amount of purified lyase used was sufficient for complete depolymerization of heparin or heparan sulfate substrates within 30 min. The initial rate of depolymerization of each polysaccharide was measured, the reaction was then continued for 24 h, and the final level of polysaccharide depolymerization was assessed by measuring the final absorbance at 232 nm and expressed as percent activity.

[3] = Activity remaining after incubation in buffers for 24 h at 37° C.; type: physicochemical; conditions: each of six buffers
Procedure: The buffer giving optimum activity for each heparin lyase was selected by testing buffers with buffering capacity near the pH optima calculated in the previous experiments. These buffers were: Tris-HCl, sodium phosphate, HEPES, MOPS, TES, and BTP-CHl. Each buffer was prepared at 50 mM, and its pH was adjusted with hydrochloric acid or sodium hydroxide to 6.9 for heparin lyase II acting on heparin, 7.15 for heparin lyase I, 7.3 for heparin lyase II acting on heparan sulfate, and 7.6 for heparin lyase III. The heparin lyase assay solutions were made by diluting enzyme in 50 mM sodium phosphate buffer adjusted to the appropriate pH as previously described. Heparin lyase activity was determined in each buffer. Activity was assayed both immediately after addition to each buffer and following incubation for 24 h at 37° C.

[4] = Heparin lyase activity assay (change of absorbance at 232 nm), heparin as substrate; type: biochemical, porcine
Procedure: as §1

[5] = Stability toward storage, freeze thawing and lyophilization; type: physicochemical; conditions: for activity retained: absence of excipient
Procedure: […] […] These lyase solutions were then divided into 3 equal aliquots, and one of each was subjected to either freeze thawing, lyophilization, or retained as a control in an ice bath. The activities of heparin lyases I-III were determined in the presence and absence of excipients after: 1) brief storage at 4° C.; 2) freezing at −70° C. and thawing; and 3) −70° C. freezing, lyophilization, and reconstituting with an equal volume of cold water.

[6] = Heparin lyase activity: effect of divalent metals and added salt, substrate specificity (each lyase on its substrates); type: biochemical
Procedure: The spectrophotometer was adjusted to the optimum temperature of the particular lyase being assayed. A 700 μl quartz microcuvette containing 400 μg of substrate in 50 mM sodium phosphate buffer (containing 100 mM sodium chloride for heparin lyase I) was thermally equilibrated. A measured quantity of lyase was added, bringing the final volume to 400 μl and the cuvette was gently mixed. The microcuvette was then immediately returned to the spectrophotometer and the change of absorbance at 232 nm was measured at 10 seconds intervals over 3 min. The activity was measured from the change of absorbance/unit time using an extinction coefficient of 3800 M^−1 for products. The specific activity was then calculated by dividing the micromoles of product produced per minute by the milligrams of protein in the cuvette. The molecular weights used for heparin, heparan sulfate, and the chondroitin sulfates were 14,000, 20,000 and 25,000, respectively, Rice, K. G., and Linhardt, R. J. (1989) Carbohydr. Res. 190, 219-233. Protein concentration was measured by the Bradford assay, Bradford, M. M. (1976) Anal. Biochem. 72, 248-254, based on a bovine serum albumin standard curve.
BTP-HCl buffer (50 mM) was prepared containing either 10 mM calcium chloride, 10 μM or 1 mM copper (II) chloride, 10 μM and 1 mM mercury (II) chloride, and 1 mM zinc (II) chloride. Each solution was adjusted to the optimum pH for the lyase being tested, and the activity of the heparin lyases was measured in the presence and absence of divalent metals.
The salt concentration for optimum activity was investigated. Sodium chloride, potassium chloride, and sodium and potassium acetate were used to differentiate between ionic strength and specific ion affects. Added salt concentrations varied between 0 and 500 mM and were prepared in 50 mM sodium phosphate buffer after which the pH was adjusted to each enzyme's optimum and the heparin lyase activity was measured.
Each heparin lyase was added to a solution of complex polysaccharides (1 mg/ml) under optimized assay conditions, and the reaction was monitored at 232 nm for 30 min. The amount of purified lyase used was sufficient for complete depolymerization of heparin or heparan sulfate substrates within 30 min. The initial rate of depolymerization of each polysaccharide was measured, the reaction was then continued for 24 h, and the final level of polysaccharide depolymerization was assessed by measuring the final absorbance at 232 nm and expressed as percent activity.

[7] = cited from earlier work
[8] = Isoelectric focusing on agarose gel; type: physicochemical; conditions: agarose IEF
Procedure: IEF gel electrophoresis was run on pre-cast agarose gels (85×100 mm). Two electrode wicks were wetted with 1M phosphoric acid (anolyte) and 1M sodium hydroxide (catholyte). Electrophoresis was at 5 watts for 5 min, then at 10 watts for 1 h until the voltage was constant at 1200 V. The gel was immediately fixed in 15% aqueous trichloroacetic acid, blotted and rinsed with water, dried overnight, stained by using Coomassie G-250, and destained.

B1: Heparin lyase I: heparin lyase I (heparinase, EC 4.2.2.7) purified to homogeneity from Flavobacterium heparinum (protein, UniProt Q05819 22-384, looked up)
Heparin lyase I: QQKKSGNIPYRVNVQADSAKQKAIIDNKWVAVGINKPYALQYDDKLRFNGKPSYRFELKAEDNSLEGYAAGETKGRTELSYSYATTNDFKKFPPSVYQNAQKLKTVYHYGKGICEQGSSRSYTFSVYIPSSFPDNATTIFAQWHGAPSRTLVATPEGEIKTLSIEEFLALYDRMIFKKNIAHDKVEKKDKDGKITYVAGKPNGWKVEQGGYPTLAFGFSKGYFYIKANSDRQWLTDKADRNNANPENSEVMKPYSSEYKTSTIAYKMPFAQFPKDCWITFDVAIDWTKYGKEANTILKPGKLDVMMTYTKNKKPQKAHIVNQQEILIGRNDDDGYYFKFGIYRVGNSTVPVTYNLSGYSETAR
time in which 80% of activity was lost [1]: 5 h | average number of sites acted at in the heparan sulfate polymer [2]: 5 sites | activity after incubation, % of initial value [3]: 1-20% | added salt concentration (ionic strength) for optimum activity ([4]; 0-500 mM salt in 50 mM sodium phosphate buffer): 100 mM | Unit/mg (specific activity) ([4]; final GPC-HPLC purification step, acting on heparin): 130 Unit/mg | average number of sites acted at in the heparin polymer ([4]; final level of depolymerization, 24 h): 7 sites | initial activity in six buffers (Tris-HCl, sodium phosphate, HEPES, MOPS, TES, BTP-HCl) ([4]; heparin, 50 mM buffer at optimum pH): reduced activity in MOPS, TES, and HEPES | temperature for maximum activity ([4]; heparin, 50 mM sodium phosphate at optimum pH, 15-55° C.): 35 °C | Km ([4]; heparin, I: 30° C., pH 7.15, 100 mM sodium chloride, II: 35° C., pH 7.3, value ± standard error, read-out: Km(app)): 17.8 ± 1.5 µM | Vmax ([4]; heparin, optimized conditions, value ± standard error): 219 ± 3.48 μmol/min mg protein | pH optimum for activity ([4]; on heparin): 7.15 | specific activity ([4]; purified lyase, toward heparin): 130 units/mg | activity retained ([5]; after a single freeze-thawing): 45% | activity retained ([5]; after freeze-drying): 25% | activity retained ([5]; stored at 4° C.): 50% | retention of activity ([5]; addition of 2.0 mg/ml BSA): greater than 85% | retention of activity ([5]; addition of 5% lactose): 40-80% | substrates acted on [6]: act on both heparin and heparan sulfate | effect of mercury on activity ([6]; 10 μM mercury (II) chloride): markedly reduced | effect of copper on activity ([6]; 1 mM copper (II) chloride): markedly reduced | effect of mercury on activity ([6]; 1 mM mercury (II) chloride): markedly reduced | effect of zinc on activity ([6]; 1 mM zinc (II) chloride): slightly reduced | effect of calcium on activity (increase) ([6]; 10 mM calcium chloride, 50 mM BTP-HCl): 30% | effect of added salt on activity ([6]; increasing salt concentration, 0-500 mM): increased activity | pH optimum (reported) ([7]; Yang et al. (1985), Linker and co-workers, assay times up to 6 h): 6.5 | Vmax (reported) ([7]; literature): 19.7 μmol/min/mg protein | pI (isoelectric point) [8]: 9.1-9.2
